# From patent US8986682B2, “Method to increase the absorption of unsaturated fatty acids by human infants” (Swedish Orphan Biovitrum AB (publ), priority 2010, dated 2015)
# “And” between values parts separate entries of the source, which are not always exact repeats. Equal values may be shown once.
# B1: rhBSSL: recombinant human bile-salt-stimulated lipase, SEQ ID. NO. 1, expressed from recombinant CHO cells; used in both clinical trials (protein, listed as Homo sapiens)
# chain: AKLGAVYTEGGFVEGVNKKLGLLGDSVDIFKGIPFAAPTKALENPQPHPGWQGTLKAKNFKKRCLQATITQDSTYGDEDCLYLNIWVPQGRKQVSRDLPVMIWIYGGAFLMGSGHGANFLNNYLYDGEEIATRGNVIVVTFNYRVGPLGFLSTGDANLPGNYGLRDQHMAIAWVKRNIAAFGGDPNNITLFGESAGGASVSLQTLSPYNKGLIRRAISQSGVALSPWVIQKNPLFWAKKVAEKVGCPVGDAARMAQCLKVTDPRALTLAYKVPLAGLEYPMLHYVGFVPVIDGDFIPADPINLYANAADIDYIAGTNNMDGHIFASIDMPAINKGNKKVTEEDFYKLVSEFTITKGLRGAKTTFDVYTESWAQDPSQENKKKTVVDFETDVLFLVPTEIALAQHRANAKSAKTYAYLFSHPSRMPVYPKWVGADHADDIQYVFGKPFATPTGYRPQDRTVSKAMIAYWTNFAKTGDPNMGDSAVPTHWEPYTTENSGYLEITKKMGSSSMKRSLRTNFLRYWTLTYLALPTVTDQEATPVPPTGDSEATPVPPTGDSETAPVPPTGDSGAPPVPPTGDSGAPPVPPTGDSGAPPVPPTGDSGAPPVPPTGDSGAPPVPPTGDSGAPPVPPTGDSGAPPVPPTGDAGPPPVPPTGDSGAPPVPPTGDSGAPPVTPTGDSETAPVPPTGDSGAPPVPPTGDSEAAPVPPTDDSKEAQMPAVIRF
# Test system: preterm infants born before week 32 of gestational age
# Test: Growth velocity (body weight) in phase II crossover studies BVT.BSSL-020/-021
# Assay type: in vivo, human
# Details: for Growth velocity, LS Mean / Growth velocity, LS Mean Difference (rhBSSL − Placebo) / Growth velocity, Maximum / Growth velocity, Mean (SD) / Growth velocity, Median / Growth velocity, Minimum: 7 days
# Method: Patients were randomized to infant formula/pasteurized breast milk supplemented with rhBSSL at a final concentration of 0.15 g/L, or to infant formula/pasteurized breast milk “supplemented” with sterile water for injection (as placebo) for the first 7 days. After a washout period of 2 days, the patient was “crossed over” to the other treatment regimen during a second 7-day treatment period. Collection of feces samples for CFA assessment were performed during the last 3 days (72 hours) of each treatment period.
# The patient's weight in grams was recorded each day using a scale with an accuracy of at least +/−5 grams and entered on the CRF. To the extent possible, body weight was measured at approximately the same time each day.
# • Growth velocity (g/kg/day): Growth velocity was defined as, for the first period, (the weight at the last assessment in the first period minus the weight at Day 1) divided by [the weight at Day 1 and (the day of the last assessment in the first period minus 1)], and for the second period, (the weight at the last assessment in the second period minus the weight at Day 10) divided by [the weight at Day 10 and (the day of the last assessment in the second period minus 10)]. The Secondary Efficacy Variables were: • CFA measured in food and feces samples collected between the tracer markers during the final 3 days (72 hours) of each treatment period. • CFA was calculated as [Fat (g/period) in food—Fat (g/period) in stool]/[Fat (g/period) in food)]*100. • Fat in food was calculated as ([Food (mL)−Vomit (mL)]*[Fat Content in Food (g/100 mL)]/100. This formula was based on the following assumptions: (a) fat content in vomit is the same as the fat content in food; (b) density of vomit is the same as density of food. • Fat content of food (formula or pasteurized breast milk) was determined using the same method as for the stool analysis and was performed by the same lab. Food (mL) and Vomit (mL) were calculated as the total amount of food or vomit recorded on or after the first tracer ingestion and prior to the second tracer ingestion. Vomit was recorded in grams on the CRF. Therefore, Vomit (mL) was calculated as Vomit (g)/Density. • There was one difference in the calculation of fat (g/period) in stool and fat content in food (g/100 mL) between the two studies. That difference relates to different contents of fatty acids in milk and formula, as described below: […]
# The primary efficacy outcome, growth velocity, was analyzed by an analysis of variance (ANOVA) with treatment, regimen (pasteurized breast milk or infant formula), period, sequence, and patient nested within regimen and sequence as factors. All main effects were tested against the residual mean square from the ANOVA model.
# [1] = BVT.BSSL-020 (infant formula), FAS, 0.15 g/L
# [2] = BVT.BSSL-020 (infant formula), PP, 0.15 g/L
# [3] = BVT.BSSL-021 (pasteurized breast milk), FAS, 0.15 g/L
# [4] = BVT.BSSL-021 (pasteurized breast milk), PP, 0.15 g/L
# [5] = combined studies 020+021, FAS, 0.15 g/L in feed
# [6] = combined studies 020+021, PP, 0.15 g/L in feed
molecule,measurement,setting,value
B1,"Growth velocity, LS Mean",[1],18.05 g/kg/day
same,"Growth velocity, LS Mean Difference (rhBSSL − Placebo)",[1],3.74 g/kg/day
same,"Growth velocity, Maximum",[1],25.5 g/kg/day
same,"Growth velocity, Mean (SD)",[1],18.06 g/kg/day and 18.06 (3.964) g/kg/day
same,"Growth velocity, Median",[1],18.39 g/kg/day
same,"Growth velocity, Minimum",[1],9.2 g/kg/day
same,"Growth velocity, LS Mean",[2],17.75 g/kg/day
same,"Growth velocity, LS Mean Difference (rhBSSL − Placebo)",[2],2.30 g/kg/day
same,"Growth velocity, Maximum",[2],24.0 g/kg/day
same,"Growth velocity, Mean (SD)",[2],17.79 (4.013) g/kg/day
same,"Growth velocity, Median",[2],17.98 g/kg/day
same,"Growth velocity, Minimum",[2],9.2 g/kg/day
same,"Growth velocity, LS Mean",[3],15.58 g/kg/day
same,"Growth velocity, LS Mean Difference (rhBSSL − Placebo)",[3],1.95 g/kg/day
same,"Growth velocity, Maximum",[3],26.5 g/kg/day
same,"Growth velocity, Mean (SD)",[3],15.54 g/kg/day and 15.54 (4.880) g/kg/day
same,"Growth velocity, Median",[3],15.95 g/kg/day
same,"Growth velocity, Minimum",[3],7.5 g/kg/day
same,"Growth velocity, LS Mean",[4],16.47 g/kg/day
same,"Growth velocity, LS Mean Difference (rhBSSL − Placebo)",[4],1.71 g/kg/day
same,"Growth velocity, Maximum",[4],26.5 g/kg/day
same,"Growth velocity, Mean (SD)",[4],16.16 (4.856) g/kg/day
same,"Growth velocity, Median",[4],16.80 g/kg/day
same,"Growth velocity, Minimum",[4],8.3 g/kg/day
same,"Growth velocity, LS Mean",[5],16.86 g/kg/day
same,"Growth velocity, LS Mean Difference (rhBSSL − Placebo)",[5],2.93 g/kg/day
same,"Growth velocity, Maximum",[5],26.5 g/kg/day
same,"Growth velocity, Mean (SD)",[5],16.92 (4.540) g/kg/day
same,"Growth velocity, Median",[5],16.84 g/kg/day
same,"Growth velocity, Minimum",[5],7.5 g/kg/day
same,"Growth velocity, LS Mean",[6],17.15 g/kg/day
same,"Growth velocity, LS Mean Difference (rhBSSL − Placebo)",[6],2.08 g/kg/day
same,"Growth velocity, Maximum",[6],26.5 g/kg/day
same,"Growth velocity, Mean (SD)",[6],17.08 (4.424) g/kg/day
same,"Growth velocity, Median",[6],16.84 g/kg/day
same,"Growth velocity, Minimum",[6],8.3 g/kg/day
same,Relative increase of growth velocity compared to the LS mean for placebo,"combined studies, PP",13.8%
same,Relative increase of growth velocity compared to the LS mean for placebo,"formula-fed infants (BVT.BSSL-020), PP",14.9%
